Measured values from paper PMC9482650, “Quantitative fragmentomics allow affinity mapping of interactomes” (Nature Communications, 2022).

T1: TJP3_3, O95049
T1 sequence (O95049 375-456, limits assumed, looked up): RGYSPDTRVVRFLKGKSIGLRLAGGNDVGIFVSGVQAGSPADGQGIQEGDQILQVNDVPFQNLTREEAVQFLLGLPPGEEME

T2: LNX2_3, Q8N448
T2 sequence (Q8N448 463-564, limits assumed, looked up): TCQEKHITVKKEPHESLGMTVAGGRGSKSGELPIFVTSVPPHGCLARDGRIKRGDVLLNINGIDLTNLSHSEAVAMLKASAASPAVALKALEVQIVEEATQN

T3: DFNB31_3, Q9P202
T3 sequence (Q9P202 811-907, limits assumed, looked up): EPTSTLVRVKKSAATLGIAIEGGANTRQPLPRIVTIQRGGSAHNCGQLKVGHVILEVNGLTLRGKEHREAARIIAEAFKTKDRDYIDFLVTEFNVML

T4: MPP7, Q5T2T1
T4 sequence (Q5T2T1 134-230, limits assumed, looked up): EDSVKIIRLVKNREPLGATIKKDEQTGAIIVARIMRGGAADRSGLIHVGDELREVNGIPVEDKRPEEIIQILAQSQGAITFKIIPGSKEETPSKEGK

T5: DFNB31_2, Q9P202
T5 sequence (Q9P202 274-371, limits assumed, looked up): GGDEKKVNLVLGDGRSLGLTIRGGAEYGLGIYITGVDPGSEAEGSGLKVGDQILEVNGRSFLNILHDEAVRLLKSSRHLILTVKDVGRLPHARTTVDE

T6: MPDZ_10, O75970
T6 sequence (O75970 1624-1722, limits assumed, looked up): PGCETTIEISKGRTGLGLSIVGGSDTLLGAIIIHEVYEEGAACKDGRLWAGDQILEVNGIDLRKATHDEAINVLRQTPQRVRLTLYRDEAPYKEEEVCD

T7: GRIP1_7, Q9Y3R0
T7 sequence (Q9Y3R0 999-1096, limits assumed, looked up): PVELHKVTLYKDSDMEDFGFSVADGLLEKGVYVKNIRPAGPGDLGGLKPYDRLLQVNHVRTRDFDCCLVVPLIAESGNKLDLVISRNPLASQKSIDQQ

T8: LIN7C, Q9NUP9
T8 sequence (Q9NUP9 88-185, limits assumed, looked up): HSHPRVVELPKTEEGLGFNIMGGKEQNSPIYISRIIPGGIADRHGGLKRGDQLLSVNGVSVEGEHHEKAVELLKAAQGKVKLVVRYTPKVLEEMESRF

T9: SNTB1, Q13884
T9 sequence (Q13884 107-205, limits assumed, looked up): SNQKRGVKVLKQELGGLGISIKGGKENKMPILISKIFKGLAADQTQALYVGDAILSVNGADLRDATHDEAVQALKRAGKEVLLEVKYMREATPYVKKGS

B1: ARHGAP6, O43182 (peptide)
chain: NPDALPETLV

Each binder was assayed against TJP1_2, Q07157 (assay: holdup assay). Conditions: plain residues with an end cap or a label only (N-terminal biotin on a linker: ttds).
Chain of TJP1_2, Q07157 (Q07157 181-274): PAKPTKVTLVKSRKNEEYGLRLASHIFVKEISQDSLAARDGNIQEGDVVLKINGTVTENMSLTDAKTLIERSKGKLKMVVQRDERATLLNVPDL
Set-up: key: below the threshold = too weak to quantify, mostly under pKd 3.1 to 4

pKd | Binder
below the threshold | B1

The binders below were run against T1, TJP3_3, O95049 (assay: holdup assay). Conditions: plain residues with an end cap or a label only (N-terminal biotin on a linker: ttds).
Set-up: key: below the threshold = too weak to quantify, mostly under pKd 3.1 to 4

pKd | Binder
below the threshold | B1

What follows are binders tested against T2, LNX2_3, Q8N448 (assay: holdup assay). Conditions: plain residues with an end cap or a label only (N-terminal biotin on a linker: ttds).
Set-up: key: below the threshold = too weak to quantify, mostly under pKd 3.1 to 4

pKd | Binder
below the threshold | B1

These binders were tested against GRIP2_5, Q9C0E4 (assay: holdup assay). Conditions: plain residues with an end cap or a label only (N-terminal biotin on a linker: ttds).
Chain of GRIP2_5, Q9C0E4 (Q9C0E4 544-642): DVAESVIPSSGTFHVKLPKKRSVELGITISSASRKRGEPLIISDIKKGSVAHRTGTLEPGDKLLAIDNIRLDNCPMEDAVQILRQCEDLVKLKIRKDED
Set-up: key: below the threshold = too weak to quantify, mostly under pKd 3.1 to 4

pKd | Binder
below the threshold | B1

These binders were tested against PICK1, Q9NRD5 (assay: holdup assay). Conditions: plain residues with an end cap or a label only (N-terminal biotin on a linker: ttds).
Chain of PICK1, Q9NRD5 (Q9NRD5 17-115): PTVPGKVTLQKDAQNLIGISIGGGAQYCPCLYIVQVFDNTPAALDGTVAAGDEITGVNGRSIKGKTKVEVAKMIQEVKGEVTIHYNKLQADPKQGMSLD
Set-up: key: below the threshold = too weak to quantify, mostly under pKd 3.1 to 4

pKd | Binder
below the threshold | B1

What follows are binders tested against T3, DFNB31_3, Q9P202 (assay: holdup assay). Conditions: plain residues with an end cap or a label only (N-terminal biotin on a linker: ttds).
Set-up: key: below the threshold = too weak to quantify, mostly under pKd 3.1 to 4

pKd | Binder
4.1 | B1

What follows are binders tested against DLG5_1, Q8TDM6 (assay: holdup assay). Conditions: plain residues with an end cap or a label only (N-terminal biotin on a linker: ttds).
Chain of DLG5_1, Q8TDM6 (Q8TDM6 617-713): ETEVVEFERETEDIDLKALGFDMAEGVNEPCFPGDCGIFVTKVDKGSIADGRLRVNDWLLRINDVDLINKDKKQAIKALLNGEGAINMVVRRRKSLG
Set-up: key: below the threshold = too weak to quantify, mostly under pKd 3.1 to 4

pKd | Binder
below the threshold | B1

The binders below were run against NHERF4_1, Q86UT5-2 (assay: holdup assay). Conditions: plain residues with an end cap or a label only (N-terminal biotin on a linker: ttds).
Chain of NHERF4_1, Q86UT5-2 (Q86UT5 other isoform, or with tags, fused parts or gaps): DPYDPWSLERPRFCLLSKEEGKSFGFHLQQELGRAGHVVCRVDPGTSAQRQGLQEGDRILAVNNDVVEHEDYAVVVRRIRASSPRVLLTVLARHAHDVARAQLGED
Set-up: key: below the threshold = too weak to quantify, mostly under pKd 3.1 to 4

pKd | Binder
3.6 | B1

Each binder was assayed against T4, MPP7, Q5T2T1 (assay: holdup assay). Conditions: plain residues with an end cap or a label only (N-terminal biotin on a linker: ttds).
Set-up: key: below the threshold = too weak to quantify, mostly under pKd 3.1 to 4

pKd | Binder
below the threshold | B1

Each binder was assayed against Inadl_10, Q8NI35 (assay: holdup assay). Conditions: plain residues with an end cap or a label only (N-terminal biotin on a linker: ttds).
Chain of Inadl_10, Q8NI35 (Q8NI35 1673-1763): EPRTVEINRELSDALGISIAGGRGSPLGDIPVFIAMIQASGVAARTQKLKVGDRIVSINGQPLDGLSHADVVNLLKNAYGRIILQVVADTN
Set-up: key: below the threshold = too weak to quantify, mostly under pKd 3.1 to 4

pKd | Binder
below the threshold | B1

The binders below were run against T5, DFNB31_2, Q9P202 (assay: holdup assay). Conditions: plain residues with an end cap or a label only (N-terminal biotin on a linker: ttds).
Set-up: key: below the threshold = too weak to quantify, mostly under pKd 3.1 to 4

pKd | Binder
below the threshold | B1

These binders were tested against GRID2IP_1, A4D2P6 (assay: holdup assay). Conditions: plain residues with an end cap or a label only (N-terminal biotin on a linker: ttds).
Chain of GRID2IP_1, A4D2P6 (A4D2P6 1-87): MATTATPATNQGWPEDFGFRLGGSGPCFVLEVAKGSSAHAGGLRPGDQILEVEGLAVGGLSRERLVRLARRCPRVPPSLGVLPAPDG
Set-up: key: below the threshold = too weak to quantify, mostly under pKd 3.1 to 4

pKd | Binder
below the threshold | B1

Each binder was assayed against T6, MPDZ_10, O75970 (assay: holdup assay). Conditions: plain residues with an end cap or a label only (N-terminal biotin on a linker: ttds).
Set-up: key: below the threshold = too weak to quantify, mostly under pKd 3.1 to 4

pKd | Binder
below the threshold | B1

Each binder was assayed against CASK, O14936 (assay: holdup assay). Conditions: plain residues with an end cap or a label only (N-terminal biotin on a linker: ttds).
Chain of CASK, O14936 (O14936 487-570): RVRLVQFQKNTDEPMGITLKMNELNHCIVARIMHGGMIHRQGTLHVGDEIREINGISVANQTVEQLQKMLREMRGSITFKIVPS
Set-up: key: below the threshold = too weak to quantify, mostly under pKd 3.1 to 4

pKd | Binder
below the threshold | B1

These binders were tested against GRID2IP_2, A4D2P6 (assay: holdup assay). Conditions: plain residues with an end cap or a label only (N-terminal biotin on a linker: ttds).
Chain of GRID2IP_2, A4D2P6 (A4D2P6 272-370): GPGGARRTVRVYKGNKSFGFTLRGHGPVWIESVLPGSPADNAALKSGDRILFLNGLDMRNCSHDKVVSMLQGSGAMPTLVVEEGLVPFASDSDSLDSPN
Set-up: key: below the threshold = too weak to quantify, mostly under pKd 3.1 to 4

pKd | Binder
3.8 | B1

The binders below were run against Inadl_6, Q8NI35 (assay: holdup assay). Conditions: plain residues with an end cap or a label only (N-terminal biotin on a linker: ttds).
Chain of Inadl_6, Q8NI35 (Q8NI35 1058-1167): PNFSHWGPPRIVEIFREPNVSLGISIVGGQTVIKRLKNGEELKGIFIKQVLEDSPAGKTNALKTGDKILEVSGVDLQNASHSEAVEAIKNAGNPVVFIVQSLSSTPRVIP
Set-up: key: below the threshold = too weak to quantify, mostly under pKd 3.1 to 4

pKd | Binder
4.3 | B1

Each binder was assayed against SCRIB_2, Q14160 (assay: holdup assay). Conditions: plain residues with an end cap or a label only (N-terminal biotin on a linker: ttds).
Chain of SCRIB_2, Q14160 (Q14160 857-960): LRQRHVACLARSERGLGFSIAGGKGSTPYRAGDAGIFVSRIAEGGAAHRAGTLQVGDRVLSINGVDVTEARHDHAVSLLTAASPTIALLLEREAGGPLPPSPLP
Set-up: key: below the threshold = too weak to quantify, mostly under pKd 3.1 to 4

pKd | Binder
3.8 | B1

Each binder was assayed against TJP1_3, Q07157 (assay: holdup assay). Conditions: plain residues with an end cap or a label only (N-terminal biotin on a linker: ttds).
Chain of TJP1_3, Q07157 (Q07157 416-512): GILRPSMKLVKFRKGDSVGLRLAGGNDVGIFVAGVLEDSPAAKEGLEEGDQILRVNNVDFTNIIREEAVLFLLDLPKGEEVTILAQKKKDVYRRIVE
Set-up: key: below the threshold = too weak to quantify, mostly under pKd 3.1 to 4

pKd | Binder
below the threshold | B1

What follows are binders tested against Inadl_1, Q8NI35 (assay: holdup assay). Conditions: plain residues with an end cap or a label only (N-terminal biotin on a linker: ttds).
Chain of Inadl_1, Q8NI35 (Q8NI35 113-229): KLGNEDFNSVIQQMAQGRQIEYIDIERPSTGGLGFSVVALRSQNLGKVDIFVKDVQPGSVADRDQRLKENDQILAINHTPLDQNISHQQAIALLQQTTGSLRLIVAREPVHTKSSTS
Set-up: key: below the threshold = too weak to quantify, mostly under pKd 3.1 to 4

pKd | Binder
below the threshold | B1

These binders were tested against GORASP1, Q9BQQ3 (assay: holdup assay). Conditions: plain residues with an end cap or a label only (N-terminal biotin on a linker: ttds).
Chain of GORASP1, Q9BQQ3 (Q9BQQ3 1-208): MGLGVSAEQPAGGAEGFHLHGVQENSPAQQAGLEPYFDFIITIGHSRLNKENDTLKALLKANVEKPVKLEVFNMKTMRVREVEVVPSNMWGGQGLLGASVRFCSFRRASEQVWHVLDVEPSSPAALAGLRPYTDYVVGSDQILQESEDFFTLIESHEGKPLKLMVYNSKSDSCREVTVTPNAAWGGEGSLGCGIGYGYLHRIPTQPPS
Set-up: key: below the threshold = too weak to quantify, mostly under pKd 3.1 to 4

pKd | Binder
below the threshold | B1

What follows are binders tested against LNX1_1, Q8TBB1 (assay: holdup assay). Conditions: plain residues with an end cap or a label only (N-terminal biotin on a linker: ttds).
Chain of LNX1_1, Q8TBB1 (Q8TBB1 261-371): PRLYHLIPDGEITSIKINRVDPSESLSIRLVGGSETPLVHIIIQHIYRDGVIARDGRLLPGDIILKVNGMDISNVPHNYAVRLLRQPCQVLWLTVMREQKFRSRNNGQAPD
Set-up: key: below the threshold = too weak to quantify, mostly under pKd 3.1 to 4

pKd | Binder
3.83 | B1

Each binder was assayed against T7, GRIP1_7, Q9Y3R0 (assay: holdup assay). Conditions: plain residues with an end cap or a label only (N-terminal biotin on a linker: ttds).
Set-up: key: below the threshold = too weak to quantify, mostly under pKd 3.1 to 4

pKd | Binder
3.61 | B1

The binders below were run against T8, LIN7C, Q9NUP9 (assay: holdup assay). Conditions: plain residues with an end cap or a label only (N-terminal biotin on a linker: ttds).
Set-up: key: below the threshold = too weak to quantify, mostly under pKd 3.1 to 4

pKd | Binder
4.31 | B1

What follows are binders tested against Inadl_2, Q8NI35 (assay: holdup assay). Conditions: plain residues with an end cap or a label only (N-terminal biotin on a linker: ttds).
Chain of Inadl_2, Q8NI35 (Q8NI35 238-335): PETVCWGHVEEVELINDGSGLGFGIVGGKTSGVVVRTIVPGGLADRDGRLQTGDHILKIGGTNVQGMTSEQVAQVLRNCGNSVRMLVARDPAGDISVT
Set-up: key: below the threshold = too weak to quantify, mostly under pKd 3.1 to 4

pKd | Binder
3.93 | B1

Each binder was assayed against MAGI3_2, Q5TCQ9 (assay: holdup assay). Conditions: plain residues with an end cap or a label only (N-terminal biotin on a linker: ttds).
Chain of MAGI3_2, Q5TCQ9 (Q5TCQ9 398-503): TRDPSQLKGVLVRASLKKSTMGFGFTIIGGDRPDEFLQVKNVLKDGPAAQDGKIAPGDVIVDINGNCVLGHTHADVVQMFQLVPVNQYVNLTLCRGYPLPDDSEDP
Set-up: key: below the threshold = too weak to quantify, mostly under pKd 3.1 to 4

pKd | Binder
4.6 | B1

The binders below were run against T9, SNTB1, Q13884 (assay: holdup assay). Conditions: plain residues with an end cap or a label only (N-terminal biotin on a linker: ttds).
Set-up: key: below the threshold = too weak to quantify, mostly under pKd 3.1 to 4

pKd | Binder
4.86 | B1

Each binder was assayed against HTRA2, O43464 (assay: holdup assay). Conditions: plain residues with an end cap or a label only (N-terminal biotin on a linker: ttds).
Chain of HTRA2, O43464 (O43464 355-458): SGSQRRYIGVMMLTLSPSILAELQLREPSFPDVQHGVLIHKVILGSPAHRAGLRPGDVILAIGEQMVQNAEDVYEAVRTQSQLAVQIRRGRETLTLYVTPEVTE
Set-up: key: below the threshold = too weak to quantify, mostly under pKd 3.1 to 4

pKd | Binder
below the threshold | B1

The binders below were run against GRIP2_7, Q9C0E4 (assay: holdup assay). Conditions: plain residues with an end cap or a label only (N-terminal biotin on a linker: ttds).
Chain of GRIP2_7, Q9C0E4 (Q9C0E4 934-1023): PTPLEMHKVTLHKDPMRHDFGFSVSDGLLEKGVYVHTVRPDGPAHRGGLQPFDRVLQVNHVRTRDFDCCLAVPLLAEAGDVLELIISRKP
Set-up: key: below the threshold = too weak to quantify, mostly under pKd 3.1 to 4

pKd | Binder
below the threshold | B1
